From IntAct's records for PubMed 17721437 come the findings set out here.

B1: Dynamin-1-like protein (Rattus norvegicus (Rat)), O35303 (parent)
chain: MEALIPVINKLQDVFNTVGADIIQLPQIVVVGTQSSGKSSVLESLVGRDLLPRGTGVVTRRPLILQLVHVSPEDKRKTTGEENDPATWKNSRHLSKGVEAEEWGKFLHTKNKLYTDFDEIRQEIENETERISGNNKGVSPEPIHLKVFSPNVVNLTLVDLPGMTKVPVGDQPKDIELQIRELILRFISNPNSIILAVTAANTDMATSEALKISREVDPDGRRTLAVITKLDLMDAGTDAMDVLMGRVIPVKLGIIGVVNRSQLDINNKKSVTDSIRDEYAFLQKKYPSLANRNGTKYLARTLNRLLMHHIRDCLPELKTRINVLAAQYQSLLNSYGEPVDDKSATLLQLITKFATEYCNTIEGTAKYIETSELCGGARICYIFHETFGRTLESVDPLGGLNTIDILTAIRNATGPRPALFVPEVSFELLVKRQIKRLEEPSLRCVELVHEEMQRIIQHCSNYSTQELLRFPKLHDAIVEVVTCLLRKRLPVTNEMVHNLVAIELAYINTKHPDFADACGLMNNNIEEQRRNRLARELPSAVSRDKSSKVPSALAPASQEPSPAASAEADGKLIQDNRRETKNVASAGGGIGDGGRIGDGGQEPTTGNWRGMLKTSKAEELLAEEKSKPIPIMPASPQKGHAVNLLDVPVPVARKLSAREQRDCEVIERLIKSYFLIVRKNIQDSVPKAVMHFLVNHVKDTLQSELVGQLYKSSLLDDLLTESEDMAQRRKEAADMLKALQGASQIIAEIRETHLW

The variants in the experiment derive from B1. Particulars: with kapca_rat Prkaca.
As to S656A, the “effect of a mutation on the interaction” value is listed as “disrupting interaction”.
